Measurements published in patent US11046981B2, “Host cell modified to produce lactams” (The Regents of the University of California, priority 2016, dated 2021).

Columns and labels:
[1] = Solubility noted during preparation of substrate stock solution; format: physicochemical; conditions: under neutral pH; HCl added to obtain 100 mM stock solution in pH ~2.0
Source text: (§1) The acids assayed were glutamic acid, γ-aminobutyrate (GABA), 4-guanidinobutyric acid, (S)-3-hydroxyl-butyric acid, valeric acid, 4-methyl-hexanoic acid, 3-aminobutyric acid, 6-aminocaproic acid, 6-guanidinohexanoic acid, glutaric acid, adipic acid, 2-aminobutyric acid and (Sigma-Aldrich, St. Louis, Mo.).

ORF27 [2] = biological target: T1, ORF27 (Streptomyces aizunensis, UniProt Q52V65); experiment: In vitro ORF27 lactam formation with ATP or ADP, product analysis by HPLC-MS; format: biochemical; conditions: ADP instead of ATP to activate ω-amino fatty acids
T1 sequence (Q52V65 1-470): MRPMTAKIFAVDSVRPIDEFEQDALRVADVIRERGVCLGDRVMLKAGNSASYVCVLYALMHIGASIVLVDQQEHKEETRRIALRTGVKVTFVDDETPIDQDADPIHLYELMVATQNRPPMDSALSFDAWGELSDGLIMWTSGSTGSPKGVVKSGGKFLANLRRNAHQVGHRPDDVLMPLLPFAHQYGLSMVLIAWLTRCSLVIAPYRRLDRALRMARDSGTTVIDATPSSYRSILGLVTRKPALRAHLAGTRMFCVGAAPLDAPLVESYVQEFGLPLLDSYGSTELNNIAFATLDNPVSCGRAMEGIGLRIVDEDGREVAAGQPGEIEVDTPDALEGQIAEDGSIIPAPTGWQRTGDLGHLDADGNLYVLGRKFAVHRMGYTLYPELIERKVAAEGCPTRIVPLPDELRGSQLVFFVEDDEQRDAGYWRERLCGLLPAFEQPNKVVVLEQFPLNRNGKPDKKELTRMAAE
Procedure: (§2) To compare formation of various lactams by ORF27, a reaction mixture containing […] of ORF27, 5 mM ω-amino fatty acids substrates, 1 mM ATP or ADP, 0.5 mM CoASH and 1 mM Mg(CI)2 in 100 mM HEPES (pH=8) was incubated at 25° C. The reactions were quenched by addition of methanol to a final concentration of 50% (v/v) at multiple time points (0 min, 15 min, 1 h, 2 h, 4 h and 19 h). The resulting quenched reactions were kept at 4° C. and filtered through 10 K Amicon Ultra-0.5 mL Centrifugal Filters (Millipore) at 8000×g for 30 min. The filtered solutions were analyzed for lactams and nucleotides using HPLC-MS. Control reactions were carried out without enzyme, without substrate, without ATP, without CoASH or without MgCl2 (supplying additional 0.2 mM EDTA to chelate Mg^2+ ions from purified protein stock). Caprolactam, valerolactam and butyrolactam, AMP, ADP and ATP were purchased as standards from Sigma-Aldrich. The pH dependence of ORF27-catalyzed butrylactam formation was determined using an end-point assay, and the amount of butyrolactam was determined using the HPLC-MS method described above.
The ORF27-catalyzed lactam formation reaction in vitro was monitored for both nucleotide and lactam products, using either ATP or ADP as the energy source. […] In the absence of ORF27, ATP remained stable throughout the reaction (FIG. 6A). […]

ORF27 [3] = biological target: T1, ORF27; experiment: ATP-PPi release assay for ORF27 (substrate range, steady state parameters); format: biochemical; conditions: substrates with a negatively charged group on the ω-terminal end
Procedure: The substrate range of ORF27 was determined by ATP-PPi release assays as previously described (12). Without prior knowledge about the reaction pathways, the ATP-PPi assay served a semi-quantitative method to compare substrate induced acceleration of ATP consumption. For kinetic investigation of ORF27 activity with different substrates, the inorganic pyrophosphate released by enzymatic reaction was measured continuously using the EnzChek Pyrophosphate Assay Kit (Invitrogen). A typical assay contained in a total volume of 150 μL: 5 μM of ORF27, 0-20 mM substrates, 1 mM ATP, 1 mM CoASH and 1 mM Mg(Cl)2 in 100 mM HEPES, pH 7.5. 2-amino-6-mercapto-7-methylpurine ribonucleoside (MESG) substrate, purine nucleoside phosphorylase and inorganic pyrophosphatase were added according to the protocol. Reactions were initiated by the addition of ATP and monitored at 360 nm with SpectraMax M2 (Molecular Devices, Sunnyvale, Calif.). Initial velocities were calculated using the standard curve for inorganic pyrophosphate. For each concentration, control reactions were carried out without enzyme or without ATP. The rates of PPi release were converted to observed rates, and the Michaelis-Menten kinetic parameters were obtained. […]
The sensitivity of the ATP-PPi release assay (5 μM Pi) allowed the initial velocity to be determined within the first 2 min of reaction incubation. […]

[4] = pH profile of ORF27 catalyzed butyrolactam formation (end-point assay); format: biochemical
Procedure: FIG. 8. pH profile of ORF27 catalyzed butyrolactam formation. A reaction mixture containing 5 μM ORF27, 1 mM GABA, 1 mM ATP, 1 mM CoASH and 1 mM Mg(Cl)2 in 100 mM HEPES (pH 7.5) was incubated at 25° C. for 30 min. The reaction was quenched by equal volume of methanol, and the filtered solution was analyzed by analytical method described above.
as §2, with “Caprolactam, valerolactam and butyrolactam, AMP, ADP and ATP were purchased as standards from Sigma-Aldrich.” left out

[5] = substrate: CCC(C)CCC(=O)O; experiment: ATP-PPi release assay for ORF27 (substrate range, steady state parameters); format: biochemical, Streptomyces aizunensis; conditions: other: 100 mM HEPES, pH 7.5 at 25° C.
Procedure: (§3) The substrate range of ORF27 was determined by ATP-PPi release assays as previously described (12). Without prior knowledge about the reaction pathways, the ATP-PPi assay served a semi-quantitative method to compare substrate induced acceleration of ATP consumption. For kinetic investigation of ORF27 activity with different substrates, the inorganic pyrophosphate released by enzymatic reaction was measured continuously using the EnzChek Pyrophosphate Assay Kit (Invitrogen). A typical assay contained in a total volume of 150 μL: 5 μM of ORF27, 0-20 mM substrates, 1 mM ATP, 1 mM CoASH and 1 mM Mg(Cl)2 in 100 mM HEPES, pH 7.5. 2-amino-6-mercapto-7-methylpurine ribonucleoside (MESG) substrate, purine nucleoside phosphorylase and inorganic pyrophosphatase were added according to the protocol. Reactions were initiated by the addition of ATP and monitored at 360 nm with SpectraMax M2 (Molecular Devices, Sunnyvale, Calif.). Initial velocities were calculated using the standard curve for inorganic pyrophosphate. For each concentration, control reactions were carried out without enzyme or without ATP. The rates of PPi release were converted to observed rates, and the Michaelis-Menten kinetic parameters were obtained.
as §1
(§4) The sensitivity of the ATP-PPi release assay (5 μM Pi) allowed the initial velocity to be determined within the first 2 min of reaction incubation. During this time period, ATP hydrolysis activity by ORF27 was not observed according to the ATP-PPi assay (ATP hydrolysis was observed over longer period of time though, see discussion below).

[6] = substrate: CCC(N)C(=O)O; experiment: as above; format: biochemical, Streptomyces aizunensis; conditions: other: 100 mM HEPES, pH 7.5 at 25° C.
Procedure: as §3, §1, §4

[7] = substrate: CCCCC(=O)O; experiment: as above; format: biochemical, Streptomyces aizunensis; conditions: other: 100 mM HEPES, pH 7.5 at 25° C.
Procedure: as §3, §1, §4

[8] = substrate: N=C(N)NCCCC(=O)O; experiment: as above; format: biochemical, Streptomyces aizunensis; conditions: other: 100 mM HEPES, pH 7.5 at 25° C.
Procedure: as §3, §1, §4

[9] = substrate: N=C(N)NCCCCCC(=O)O; experiment: as above; format: biochemical, Streptomyces aizunensis; conditions: other: 100 mM HEPES, pH 7.5 at 25° C.
Procedure: as §3, §1, §4

[10] = substrate: NCCCC(=O)O; experiment: as above; format: biochemical, Streptomyces aizunensis; conditions: other: 100 mM HEPES, pH 7.5 at 25° C.
Procedure: as §3, §1, §4

[11] = substrate: NCCCCCC(=O)O; experiment: as above; format: biochemical, Streptomyces aizunensis; conditions: other: 100 mM HEPES, pH 7.5 at 25° C.
Procedure: as §3, §1, §4

N=C(N)NCCCCCC(=O)O [6-Guanidinohexanoic acid]
solubility [1]: low solubility

Nc1ncnc2c1ncn2[C@@H]1O[C@H](COP(=O)(O)OP(=O)(O)O)[C@@H](O)[C@H]1O [ADP]
rate of lactam formation with ADP relative to the similar reaction with ATP (ORF27 [2]): 20-50%

O=C(O)CCCCC(=O)O [adipic acid, Adipic acid]
enzyme activity of ORF27 on the substrate (ORF27 [3]): not observed

O=C(O)CCCC(=O)O [glutaric acid, Glutaric acid]
enzyme activity of ORF27 on the substrate (ORF27 [3]): not observed

B1: ORF27 (Streptomyces aizunensis) (protein)
chain: T1 sequence (Q52V65 1-470)
pH below which the enzyme precipitated and became inactive [4]: below 6.0 | pH optimum [4]: 8.0 | Km [5]: 12100 µM | kcat [5]: 0.0217 s⁻¹ | kcat/Km [5]: 1.8 M⁻¹ s⁻¹ | Km [6]: 1630 µM | kcat [6]: 0.0006 s⁻¹ | kcat/Km [6]: 0.37 M⁻¹ s⁻¹ | Km [7]: 52200 µM | kcat [7]: 0.0283 s⁻¹ | kcat/Km [7]: 0.543 M⁻¹ s⁻¹ | Km [8]: 13 µM | kcat [8]: 0.002 s⁻¹ | kcat/Km [8]: 157 M⁻¹ s⁻¹ | Km [9]: 110 µM | kcat [9]: 0.0055 s⁻¹ | kcat/Km [9]: 49 M⁻¹ s⁻¹ | Km [10]: 17200 µM | kcat [10]: 0.00583 s⁻¹ | kcat/Km [10]: 0.338 M⁻¹ s⁻¹ | Km [11]: 56 µM | kcat [11]: 0.00283 s⁻¹ | kcat/Km [11]: 49.4 M⁻¹ s⁻¹
